# From patent US20210230570A1 (published 2021)
# Positions count from the first letter of the chain named. Numbers in names are those of the source.
# T1: Factor VIIIa (recombinant FVIII, Kogenate FS, Bayer healthcare, activated with alpha-thrombin) (UniProt P00451 20-2351, limits assumed)
# T1 construct: also called FVIIIa; cofactor
# T1 sequence (looked up): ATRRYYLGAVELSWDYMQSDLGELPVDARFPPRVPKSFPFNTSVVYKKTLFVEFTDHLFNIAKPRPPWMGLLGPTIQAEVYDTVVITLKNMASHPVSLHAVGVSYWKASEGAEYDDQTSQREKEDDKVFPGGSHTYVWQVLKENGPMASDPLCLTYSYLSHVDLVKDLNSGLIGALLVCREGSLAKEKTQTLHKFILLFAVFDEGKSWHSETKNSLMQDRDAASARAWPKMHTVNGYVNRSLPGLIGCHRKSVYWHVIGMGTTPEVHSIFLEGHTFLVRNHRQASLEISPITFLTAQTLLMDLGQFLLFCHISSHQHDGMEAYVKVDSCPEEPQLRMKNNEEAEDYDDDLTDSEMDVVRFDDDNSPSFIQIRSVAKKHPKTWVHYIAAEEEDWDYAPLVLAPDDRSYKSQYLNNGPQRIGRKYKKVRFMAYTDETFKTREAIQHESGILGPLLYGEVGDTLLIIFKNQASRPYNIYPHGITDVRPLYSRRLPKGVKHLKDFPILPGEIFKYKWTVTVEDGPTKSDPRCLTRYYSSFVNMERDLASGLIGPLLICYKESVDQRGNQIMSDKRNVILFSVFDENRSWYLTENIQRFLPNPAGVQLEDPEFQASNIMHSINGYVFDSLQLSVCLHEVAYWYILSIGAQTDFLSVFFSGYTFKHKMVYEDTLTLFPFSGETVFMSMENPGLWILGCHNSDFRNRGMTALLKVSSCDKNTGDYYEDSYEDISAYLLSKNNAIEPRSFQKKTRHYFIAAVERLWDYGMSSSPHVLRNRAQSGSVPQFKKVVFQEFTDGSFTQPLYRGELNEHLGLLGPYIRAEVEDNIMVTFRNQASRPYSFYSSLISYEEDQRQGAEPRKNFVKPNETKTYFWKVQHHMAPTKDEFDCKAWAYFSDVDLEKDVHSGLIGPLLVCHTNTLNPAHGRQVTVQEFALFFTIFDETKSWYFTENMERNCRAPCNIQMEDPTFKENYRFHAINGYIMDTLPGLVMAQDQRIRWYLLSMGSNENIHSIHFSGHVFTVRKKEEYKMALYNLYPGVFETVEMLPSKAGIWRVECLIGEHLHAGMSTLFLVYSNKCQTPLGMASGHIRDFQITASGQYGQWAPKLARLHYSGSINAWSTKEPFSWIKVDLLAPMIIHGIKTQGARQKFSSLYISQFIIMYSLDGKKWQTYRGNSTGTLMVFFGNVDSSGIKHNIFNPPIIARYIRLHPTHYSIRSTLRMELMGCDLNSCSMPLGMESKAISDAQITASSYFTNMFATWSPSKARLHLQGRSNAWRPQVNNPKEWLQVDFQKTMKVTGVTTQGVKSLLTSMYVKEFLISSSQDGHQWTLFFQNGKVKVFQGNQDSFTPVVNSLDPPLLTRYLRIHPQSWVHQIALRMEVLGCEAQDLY
# B1: FIXa-A103N/N105S/K247N/N249S/R318Y/R338E/R403E/E410N (enzyme)
# chain 1: YNSGKLEEFVQGNLERECMEEKCSFEEAREVFENTERTTEFWKQYVDGDQCESNPCLNGGSCKDDINSYECWCPFGFEGKNCELDVTCNIKNGRCEQFCKNSNDSKVVCSCTEGYRLAENQKSCEPAVPFPCGRVSVSQTSKLTR
# chain 2: VVGGEDAKPGQFPWQVVLNGKVDAFCGGSIVNEKWIVTAAHCVETGVKITVVAGEHNIEETEHTEQNRSVIRIIPHHNYNAAINKYNHDIALLELDEPLVLNSYVTPICIADKEYTNIFLKFGSGYVSGWGRVFHKGYSALVLQYLRVPLVDRATCLESTKFTIYNNMFCAGFHEGGRDSCQGDSGGPHVTEVEGTSFLTGIISWGEECAMKGKYGIYTKVSEYVNWIKNKTKLT
# B2: FIXa-R318Y/R338E/T343R/N346Y/R403E/E410N (enzyme)
# chain 1: B1 chain 1 with N103A, S105N
# chain 2: B1 chain 2 with N67K, S69N, T163R, N166Y
# notes: also called R150Y/R170E/T175R/N178Y/R233E/E240N (chymotrypsin numbering)
# B3: FIXa-R318Y/R338E/E410S (enzyme)
# chain 1: B1 chain 1 with N103A, S105N
# chain 2: B1 chain 2 with N67K, S69N, E223R, N230S
# notes: also called R150Y/R170E/E240S (chymotrypsin numbering)
# B4: FIXa-R318Y/R338E/N346Y/R403E/E410N (enzyme)
# chain 1: B1 chain 1 with N103A, S105N
# chain 2: B1 chain 2 with N67K, S69N, N166Y
# notes: also called R150Y/R170E/N178Y/R233E/E240N (chymotrypsin numbering)
# B5: FIXa-Y155F/K247N/N249S/N260S (enzyme)
# chain 1: B1 chain 1 with N103A, S105N
# chain 2: B1 chain 2 with N80S, Y138R, E158R, E223R, N230E
# B6: FIXa-K228N/K247N/N249S (enzyme)
# chain 1: B1 chain 1 with N103A, S105N
# chain 2: B1 chain 2 with K48N, Y138R, E158R, E223R, N230E
# notes: also called K63N/K82N/N84S (chymotrypsin numbering)
# B7: FIXa-R318Y/R338E/R403E/E410N/T412V (enzyme)
# chain 1: B1 chain 1 with N103A, S105N
# chain 2: B1 chain 2 with N67K, S69N, T232V
# notes: also called R150Y/R170E/R233E/E240N/T242V (chymotrypsin numbering)
# B8: FIXa-Y259F/K265T/Y345T (enzyme)
# chain 1: B1 chain 1 with N103A, S105N
# chain 2: B1 chain 2 with N67K, S69N, Y79F, K85T, Y138R, E158R, Y165T, E223R, N230E
# notes: also called Y94F/K98T/Y177T (chymotrypsin numbering)
# B9: FIXa-Y155F/K228N/R318Y/R338E/R403E/E410N (enzyme)
# chain 1: B1 chain 1 with N103A, S105N
# chain 2: B1 chain 2 with K48N, N67K, S69N
# B10: FIXa-D104N/K106S/K247N/N249S/R318Y/R338E/R403E/E410N (enzyme)
# chain 1: B1 chain 1 with N103A, D104N, S105N, K106S
# chain 2: B1 chain 2
# B11: FIXa-I251S/R318Y/R338E/E410N (enzyme)
# chain 1: B1 chain 1 with N103A, S105N
# chain 2: B1 chain 2 with N67K, S69N, I71S, E223R
# notes: also called I251S/R318Y/E410N/R338E; I86S/R150Y/R170E/E240N (chymotrypsin numbering)
# B12: FIXa-D104N/K106S/I251S/R318Y/R338E/R403E/E410N (enzyme)
# chain 1: B1 chain 1 with N103A, D104N, S105N, K106S
# chain 2: B1 chain 2 with N67K, S69N, I71S
# B13: FIXa-R318Y/R338E/N346D/R403E/E410N (enzyme)
# chain 1: B1 chain 1 with N103A, S105N
# chain 2: B1 chain 2 with N67K, S69N, N166D
# notes: also called R150Y/R170E/N178D/R233E/E240N (chymotrypsin numbering)
# B14: FIXa-R318Y/R338E/T343R/R403E/E410N (enzyme)
# chain 1: B1 chain 1 with N103A, S105N
# chain 2: B1 chain 2 with N67K, S69N, T163R
# notes: also called R150Y/R170E/T175R/R233E/E240N (chymotrypsin numbering)
# B15: FIXa-R318Y/R338E/T343R/N346D/R403E/E410N (enzyme)
# chain 1: B1 chain 1 with N103A, S105N
# chain 2: B1 chain 2 with N67K, S69N, T163R, N166D
# notes: also called R150Y/R170E/T175R/N178D/R233E/E240N (chymotrypsin numbering)
# B16: FIXa-Y155F/K247N/N249S/R318Y/R338E/E410N (enzyme)
# chain 1: B1 chain 1 with N103A, S105N
# chain 2: B1 chain 2 with E223R
# B17: FIXa-I251S/R318Y/R338E/R403E/E410N (enzyme)
# chain 1: B1 chain 1 with N103A, S105N
# chain 2: B1 chain 2 with N67K, S69N, I71S
# notes: also called I86S/R150Y/R170E/R233E/E240N (chymotrypsin numbering)
# B18: FIXa-K247N/N249S/N260S (enzyme)
# chain 1: B1 chain 1 with N103A, S105N
# chain 2: B1 chain 2 with N80S, Y138R, E158R, E223R, N230E
# notes: also called K82N/N84S/N95S (chymotrypsin numbering)
# B19: FIXa-R318Y/R338E/E410N/T412V (enzyme)
# chain 1: B1 chain 1 with N103A, S105N
# chain 2: B1 chain 2 with N67K, S69N, E223R, T232V
# notes: also called R150Y/R170E/E240N/T242V (chymotrypsin numbering)
# B20: FIXa-D104N/K106S/I251S/R318Y/R338E/E410N (enzyme)
# chain 1: B1 chain 1 with N103A, D104N, S105N, K106S
# chain 2: B1 chain 2 with N67K, S69N, I71S, E223R
# B21: FIXa-K228N/K247N/N249S/R318Y/R338E/R403E/E410N (enzyme)
# chain 1: B1 chain 1 with N103A, S105N
# chain 2: B1 chain 2 with K48N
# notes: also called K63N/K82N/N84S/R150Y/R170E/R233E/E240N (chymotrypsin numbering)
# B22: FIXa-K247N/N249S/N260S/R318Y/R338E/R403E/E410N (enzyme)
# chain 1: B1 chain 1 with N103A, S105N
# chain 2: B1 chain 2 with N80S
# notes: also called K82N/N84S/N95S/R150Y/R170E/R233E/E240N (chymotrypsin numbering)
# B23: FIXa-R318Y/R338E/R403E/E410S (enzyme)
# chain 1: B1 chain 1 with N103A, S105N
# chain 2: B1 chain 2 with N67K, S69N, N230S
# notes: also called R150Y/R170E/R233E/E240S (chymotrypsin numbering)
# Biological target: T1, Factor VIIIa (recombinant FVIII, …)
# Experiment: same assay; KD-app of Catalyst Biosciences WT FIXa divided by KD-app of the variant
# Procedure: The molar concentration of FVIII was then determined by absorbance at 280 nm using an extinction coefficient of 1.567 mg⁻¹ mL cm⁻¹ and a molecular weight of 163.6 kDa.
row,KD-WT/KD-mut,Binder
1,1 ratio,B1
2,6.1 ratio,B2
3,14.1 ratio,B3
4,2.4 ratio,B4
5,0.6 ratio,B5
6,0.8 ratio,B6
7,1.7 ratio,B7
8,0.8 ratio,B8
9,3.1 ratio,B9
10,1.1 ratio,B10
11,16.7 ratio,B11
12,1.7 ratio,B12
13,0.9 ratio,B13
14,6.6 ratio,B14
15,1.3 ratio,B15
16,12.8 ratio,B16
17,1.5 ratio,B17
18,0.6 ratio,B18
19,10.7 ratio,B19
20,7.7 ratio,B20
21,0.9 ratio,B21
22,1.5 ratio,B22
23,1.8 ratio,B23
